Experimental findings from patent US20090155236A1, “Peptide sequence for modulation of delta protein kinase c” (NATIONAL INSTITUES OF HEALTH (NIH), U.S. DEPT OF HEALTH AND …, priority 2004, published 2009) are described below.

For assay [1], the target named is recombinant full-length delta PKC (rat). Kind of assay: ELISA, absence of calcium.
Assay [2] shares this target. Kind of assay: ELISA, presence of calcium.
Assay [3] has as its target annexin V protein (human) (UniProt P08758). Kind of assay: ELISA, annexin V immobilised, absence of calcium.
The target is the same in assay [4]. Kind of assay: ELISA, annexin V immobilised, presence of calcium. (In general: ELISA stands for enzyme-linked immunosorbent assay.)

Chain of annexin V protein (human) (P08758 2-320 limits assumed): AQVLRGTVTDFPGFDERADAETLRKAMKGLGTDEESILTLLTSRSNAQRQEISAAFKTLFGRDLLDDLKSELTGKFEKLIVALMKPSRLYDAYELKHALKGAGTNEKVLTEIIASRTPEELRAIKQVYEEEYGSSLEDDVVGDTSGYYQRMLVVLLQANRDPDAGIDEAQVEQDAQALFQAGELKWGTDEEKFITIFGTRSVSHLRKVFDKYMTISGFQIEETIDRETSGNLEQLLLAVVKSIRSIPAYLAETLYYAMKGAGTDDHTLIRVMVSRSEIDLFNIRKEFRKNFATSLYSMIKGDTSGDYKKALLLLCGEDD

As for “annexin V protein (from UniProt P08758 2-320)”, the percent binding in assay [1] was 75%; in assay [2], 100%.

As to “delta V1 PKC (from UniProt P09215 1-160)”, the percent binding in assay [3] was 55%; in assay [4], 100%.
